Experimental data reported in doi:10.1101/2020.08.16.253294 (bioRxiv, 2020).
Positions count from the first letter of the chain named. Names may count otherwise.

B1: extracellular domain of ZIP4 from Pteropus alecto (black fruit bat), wild type (domain or fragment)
chain: SGQGALDRVALGGLLNTLAARVHCTSGPCGKCLSVDDLLALGRPEEPGHLARLSAAAALYLSDPEGTCEDIRAGRWASRADHLLALLEGPKALAPGLSRLLQRIQAQTTGQPSAGEACVDPPQLLREAGVAGAPGSPGPVLATLLEHVGRGSCFHTLPTPQYFVDFVFQQSHGNTPNISVAELAALMQRLGVGGVTETHSDHHHQEKRVNRQGPTPLTAPNSSSDTWDTVCLSARDVMAVYGLSEQTGVTPEAWAQLSPALLQQQLSGACSPQPSHPAQNQLSQAEK
B2: pZIP4-ECD P193L variant (domain or fragment)
chain: B1 chain with P158L
B3: pZIP4-ECD A91T variant (domain or fragment)
chain: B1 chain with A56T
B4: pZIP4-ECD R87C variant (domain or fragment)
chain: B1 chain with R52C
B5: pZIP4-ECD C64R variant (domain or fragment)
chain: B1 chain with C29R
B6: pZIP4-ECD Q299H variant (domain or fragment)
chain: B1 chain with Q264H

Target: the molecule itself
Experiment: SEC

Protein	stoichiometry N
B1	2
B2	2
B3	2
B4	2
B5	2
B6	2
